According to patent publication US9296994B2, “Archease as RNA ligaes complex member” (IMBA—INSTITUT FÜR MOLEKULARE BIOTECHNOLOGIE GMBH, priority 2012, dated 2016):
Changes are numbered by the printed parent chain. In names and notes the source's numbering stands. Values belong to the molecule of their own block, whether it stands above or below them.

How the values were obtained:
[1] = biological target: T1, FLAG-RTCB, the catalytic subunit of the human tRNA ligase (Homo sapiens, UniProt Q9Y3I0); assay: Assay to monitor Archease function and inhibition of RNA ligase activity (linear intron substrate); format: biochemical; details: FLAG-RTCB from HEK293 cells with His-tagged Archease, GTP or GMPcPP at 0.5 mM
T1 construct: FLAG; made in house; host or cells: HEK293 cells (FLAG-RTCB)
Procedure: FIG. 14: Assay to monitor inhibition of RNA ligase activity. […] The linear substrate (second from bottom to top) is converted into a circular product (bottom) or a concatemer (top), which is further circularized (third from bottom to top). Ligation only took place with wild-type Archease and GTP.
The RNA ligation activity of FLAG-RTCB, the catalytic subunit of the human tRNA ligase, was determined in the presence of wildtype or mutant (D39A) Archease with the addition of GTP or non-hydrolysable GMPcPP (5′-guanylylmethylenebisphosphonate). […] The reaction was carried out with FLAG-RTCB purified from HEK293 cells and hexahistidine tagged wild-type or mutant Archease. Furthermore, GTP or GMPcPP were used at 0.5 mM concentration. A linear intron derived from a radioactively labelled pre-tRNA that was transcribed with T7 polymerase and cleaved with recombinant tRNA endonuclease from Methanocaldococcus jannaschii served as substrate. Cleavage products were resolved on preparative denaturing polyacrylamide gels and the linear intron was eluted overnight and recovered by precipitation. With reference to FIG. 14, FLAG-RTCB and wild-type Archease in the presence of GTP are able to convert the linear substrate (second from bottom to top) into a circular product (bottom) or a concatemer (top), which is further circularized (third from bottom to top). This type of assay can be used to validate candidate inhibitors of the Archease or even the ligase or to screen compound libraries in order to find inhibitory molecules.

[2] = test system: pre-cleaved tRNA substrates; assay: RNA ligase activity assay of affinity-purified FLAG-tagged Archease on pre-cleaved tRNA substrates; format: biochemical, human; details: FLAG immuno-precipitate
Procedure: A) Coomassie Blue stained preparations of FLAG-tagged Archease and HSPC117 affinity purified at 150 mM NaCl. B) RNA ligase activity assay of FLAG-HSPC117 and FLAG-Archease using pre-cleaved tRNA substrates. Extracts of HEK 293 cells were used as a negative control. * Indicates unspecific products.
Stable cell lines expressing a FLAG-tagged version of Archease and HSPC117 were generated to perform immuno-precipitations. Fluted FLAG-Archease was assayed for tRNA ligation in parallel with FLAG-HSPC117, which contains the entire tRNA ligase complex.

[3] = test system: cleaved Xbp1 RNA minimal substrate; assay: In vitro Xbp1 splicing (exon ligation) assay with Ire1 pre-cleaved Xbp1 RNA; format: biochemical, human; details: for Stimulation of ligation of Xbp1 RNA minimal substrates by affinity purified human tRNA ligase complex: addition of recombinant protein
Description: FIG. 8: The human tRNA ligase HSPC117 and Archease are both required for non-conventional splicing of Xbp1 mRNA during the Unfolded Protein Response (UPR). A) Experimental outline for in vitro splicing assay. B) An internally labeled fragment of Xbp1 mRNA was pre-cleaved with recombinant Ire1 endonuclease and supplemented with buffer or HeLa whole-cell extract (wce) for the indicated time points to allow ligation of exon halves. Formation of splice product is specific to the presence of both Ire1 and cell extract. Lanes marked “unspliced” and “spliced” contain control transcripts to mark the size of the splice product. C) HSPC117 and Archease both contribute to non-conventional splicing. 3′ end labeled Xbp1 was pre-cleaved with Ire1 and supplemented with whole-cell extract from HeLa cells treated with siRNAs as indicated above the lanes. Cell extracts were harvested 72 hrs post transfection. D) Ligase activity for non-conventional splicing resides in HSPC117 but not in Archease. In vitro splicing assay using 3′end labeled Xbp1 carried out using whole cell extract (input) or FLAG-IP from HEK293 cells stably expressing FLAG-HSPC117, FLAG-Archease or FLAG-DDX1. Ligation activity is only found in IPs of integral members of the tRNA ligase complex. E) Non-conventional splicing activity is stimulated by addition of Archease. Splicing assay using 3′ end labeled Xbp1 carried out as above with addition of buffer or recombinant protein as indicated above the lanes. […] Bovine Serum Albumine (BSA) was included as control.
For the splicing assay RNA was prepared by T7-transcrition from PCR product containing spliced and unspliced form of human Xbp1. Substrates were labelled internally using a-GTP and at the 3′end using ligation to pCp. Substrate was pre-cleaved with recombinant Ire1 for 5 mins in tRNA ligation buffer with subsequent addition of protein extract of FLAG-IP eluate to total volume of 5 μl. Samples were treated with proteinase K and phenol-chloroform extracted prior to loading on 10% PAGE gel.
Perturbation of normal ER function causes mis- or unfolded proteins to accumulate leading to activation of the unfolded protein response (UPR). One of three UPR pathway inducers in mammals, the ER transmembrane protein Ire1, cleaves the Xbp1 mRNA specifically to remove a 26 nt intron (FIG. 8A). […] None of the additional four components of the tRNA ligase complex were required for ligation in agreement with previous findings (WO 2012/28606). […] The reduced ligation activity seen in Archease-depleted extracts raised the question whether Archease is an RNA ligase or rather acts to stimulate the ligation activity of other ligases. To address this question stable cell lines expressing FLAG-tagged versions of HSPC117, Archease, and DDX1 (a DEAD-box helicase component of the human tRNA ligase complex) were generated and the Xbp1 ligation assay using FLAG-IPs was performed.
To further address the stimulatory activity of Archease both HSPC117 and Archease were depleted by RNAi and then an Archease rescue-construct containing either WT or MUT Archease was introduced.

[4] = biological target: T2, human tRNA ligase complex (Homo sapiens, UniProt Q9Y3I0); assay: RNA ligation assay with affinity-purified tRNA ligase complex and added recombinant Archease; format: biochemical; details: pre-cleaved tRNA substrates or linear intron; time course
T2 construct: FLAG; made in house; Archease expressed in E. coli
Procedure: FIG. 3: Archease boosts RNA ligation by the human tRNA ligase complex. A) Time-course ligation assay with affinity-purified tRNA ligase complex and pre-cleaved tRNA substrates in absence or presence of recombinant Archease. B) Time course ligation assay with affinity purified tRNA ligase complex and isolated linear introns (2.5 μM) in absence or presence of recombinant Archease (8.5 μM) expressed in E. coli. The signals corresponding to the concatemerized intron were quantified and plotted as fraction of the total signal detectable in the respective lane.
FIG. 6: The point mutations D39A and K144A abolish the function of Archease in RNA ligation. A) Time-course of ligation activity of FLAG-HSPC117 complexes upon addition of recombinant wild-type or mutant Archease (15 μM). B) SDS-PAGE analysis of purified recombinant wild-type and mutant Archease.
Addition of Archaease influences ligase activity of affinity purified human tRNA ligase complexes.
To study the function of Archease the available NMR structure from the euryarchaeote Methanothermobacter thermautotrophicus (Yee et al., 2002) (36% identical to human protein) was used and aspartic acid (D) 39 and lysine (K) 144, both extremely conserved residues, were replaced by alanines (D39A; K144A) (FIG. 5). Wild-type and mutant versions of Archease were over-expressed in […] and tRNA ligase activity was measured. […] FIG. 6B confirms equal concentrations of recombinant proteins added to the reactions.

T1 sequence (Q9Y3I0 whole entry): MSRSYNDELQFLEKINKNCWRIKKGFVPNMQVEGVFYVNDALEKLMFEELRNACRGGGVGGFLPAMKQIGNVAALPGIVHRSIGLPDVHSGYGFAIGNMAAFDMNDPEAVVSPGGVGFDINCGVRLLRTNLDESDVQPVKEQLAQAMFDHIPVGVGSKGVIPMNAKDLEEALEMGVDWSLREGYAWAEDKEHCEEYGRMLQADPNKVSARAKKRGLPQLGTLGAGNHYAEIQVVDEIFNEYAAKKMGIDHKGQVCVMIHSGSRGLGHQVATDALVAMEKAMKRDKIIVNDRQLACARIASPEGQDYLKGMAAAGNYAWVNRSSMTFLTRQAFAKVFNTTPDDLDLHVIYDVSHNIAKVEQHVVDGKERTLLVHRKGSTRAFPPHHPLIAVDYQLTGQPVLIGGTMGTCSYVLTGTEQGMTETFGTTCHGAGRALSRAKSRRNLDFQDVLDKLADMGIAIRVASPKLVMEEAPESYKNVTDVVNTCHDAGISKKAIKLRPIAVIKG
T1 sequence (Q92499 whole entry partner): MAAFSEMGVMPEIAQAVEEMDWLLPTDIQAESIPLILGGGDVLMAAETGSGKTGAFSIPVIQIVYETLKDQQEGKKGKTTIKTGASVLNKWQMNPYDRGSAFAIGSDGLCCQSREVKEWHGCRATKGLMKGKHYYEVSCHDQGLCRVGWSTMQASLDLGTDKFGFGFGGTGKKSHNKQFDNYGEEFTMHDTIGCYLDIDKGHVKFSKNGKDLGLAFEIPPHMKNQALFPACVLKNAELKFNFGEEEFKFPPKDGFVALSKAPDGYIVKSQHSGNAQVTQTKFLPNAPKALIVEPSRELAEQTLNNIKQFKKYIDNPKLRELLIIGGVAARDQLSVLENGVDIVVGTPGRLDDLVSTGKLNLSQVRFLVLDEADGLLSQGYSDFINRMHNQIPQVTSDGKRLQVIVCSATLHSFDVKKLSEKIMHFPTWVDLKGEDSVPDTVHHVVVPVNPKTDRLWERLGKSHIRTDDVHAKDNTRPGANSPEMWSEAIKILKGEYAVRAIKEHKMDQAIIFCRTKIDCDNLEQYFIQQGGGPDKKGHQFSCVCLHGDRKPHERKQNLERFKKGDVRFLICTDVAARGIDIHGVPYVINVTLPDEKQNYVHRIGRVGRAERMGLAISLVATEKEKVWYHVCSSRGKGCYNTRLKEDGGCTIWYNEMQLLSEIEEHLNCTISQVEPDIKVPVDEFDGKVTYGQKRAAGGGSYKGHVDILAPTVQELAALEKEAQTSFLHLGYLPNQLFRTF
T1 sequence (Q52LJ0 whole entry partner): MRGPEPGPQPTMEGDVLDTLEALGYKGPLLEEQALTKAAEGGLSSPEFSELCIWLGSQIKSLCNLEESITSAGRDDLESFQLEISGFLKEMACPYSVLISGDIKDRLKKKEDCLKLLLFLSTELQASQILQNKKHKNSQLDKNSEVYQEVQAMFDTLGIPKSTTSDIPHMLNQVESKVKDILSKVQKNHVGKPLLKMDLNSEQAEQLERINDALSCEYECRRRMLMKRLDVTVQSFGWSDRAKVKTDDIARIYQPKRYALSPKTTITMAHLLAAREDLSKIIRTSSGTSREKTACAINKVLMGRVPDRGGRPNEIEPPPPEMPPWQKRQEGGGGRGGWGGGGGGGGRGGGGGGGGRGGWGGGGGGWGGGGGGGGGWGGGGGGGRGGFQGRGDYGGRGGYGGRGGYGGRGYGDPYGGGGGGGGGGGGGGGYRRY
T1 sequence (Q9BVC5 whole entry partner): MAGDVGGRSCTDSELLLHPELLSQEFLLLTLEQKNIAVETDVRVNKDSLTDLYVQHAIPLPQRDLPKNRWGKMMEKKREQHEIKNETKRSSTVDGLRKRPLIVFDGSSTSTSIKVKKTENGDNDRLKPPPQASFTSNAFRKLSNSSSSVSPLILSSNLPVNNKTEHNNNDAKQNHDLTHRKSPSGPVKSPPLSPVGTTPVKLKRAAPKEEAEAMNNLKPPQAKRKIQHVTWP
T1 sequence (Q9Y224 whole entry partner): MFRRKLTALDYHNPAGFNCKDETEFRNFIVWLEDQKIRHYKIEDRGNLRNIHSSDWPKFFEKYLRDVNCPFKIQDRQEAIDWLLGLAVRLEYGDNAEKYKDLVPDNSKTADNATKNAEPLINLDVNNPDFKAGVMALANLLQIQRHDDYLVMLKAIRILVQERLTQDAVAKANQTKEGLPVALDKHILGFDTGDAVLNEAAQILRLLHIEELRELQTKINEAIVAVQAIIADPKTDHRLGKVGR
T2 sequence (Q9Y3I0 whole entry): as the sequence (Q9Y3I0 whole entry) above
T2 sequence (Q92499 whole entry partner): as the sequence (Q92499 whole entry partner) above
T2 sequence (Q52LJ0 whole entry partner): as the sequence (Q52LJ0 whole entry partner) above
T2 sequence (Q9BVC5 whole entry partner): as the sequence (Q9BVC5 whole entry partner) above
T2 sequence (Q9Y224 whole entry partner): as the sequence (Q9Y224 whole entry partner) above

Molecule: Nc1nc2c(ncn2[C@@H]2O[C@H](COP(=O)(O)CP(=O)(O)OP(=O)(O)O)[C@@H](O)[C@H]2O)c(=O)[nH]1 [GMPcPP, 5′-guanylylmethylenebisphosphonate]
RNA ligation activity of FLAG-RTCB [1]: strongly inhibits the ligation reaction | RNA ligation activity of FLAG-RTCB ([1]; listed as GMPCPP): inhibits the reaction

B1: FLAG-tagged Archease: FLAG-tagged version of Archease affinity purified from stable cell lines (protein)
chain: MAQEEEDVRDYNLTEEQKAIKAKYPPVNRKYEYLDHTADVQLHAWGDTLEEAFEQCAMAMFGYMTDTGTVEPLQTVEVETQGDDLQSLLFHFLDEWLYKFSADEFFIPREVKVLSIDQRNFKLRSIGWGEEFSLSKHPQGTEVKAITYSAMQVYNEENPEVFVIIDI
modifications: left off: small tags and cut ends
RNA ligase activity of the affinity-purified protein itself [2]: RNA ligase activity was only detectable in reactions containing affinity-purified RNA ligase complex but not FLAG-tagged Archease | Xbp1 ligation activity of FLAG-IP ([3]; FLAG-IP from stable HEK293 cells): no ligation was detected

Stimulation of ligation of Xbp1 RNA minimal substrates by affinity purified human tRNA ligase complex [3]: inactive
B2: D39A: Archease point mutant, aspartic acid 39 replaced by alanine; inactive (protein, listed as Homo sapiens)
chain: B1 chain with D39A
RNA ligase activity of affinity purified tRNA ligase complex upon addition of recombinant Archease [4]: neither of the mutant versions of Archease stimulated the low levels of ligation

Stimulation of ligation of Xbp1 RNA minimal substrates by affinity purified human tRNA ligase complex [3]: inactive
B3: K144A: Archease point mutant, lysine 144 replaced by alanine; inactive (protein, listed as Homo sapiens)
chain: B1 chain with K144A
RNA ligase activity of affinity purified tRNA ligase complex upon addition of recombinant Archease [4]: neither of the mutant versions of Archease stimulated the low levels of ligation
